The values that follow come from US6509447B1, “G protein chimeras and methods of screening compounds” (Glaxo Welcome Inc., priority 1997, dated 2003).

Assay [1] concerns purinergic nucleotide P2Y2 receptor. As to the kind of experiment: CPRG assay, MMY9 cells expressing P2Y2 receptor plus Gα subunit. It counts as cell-based, human. Also noted: key: weak activation insufficient to carry out curve-fitting was detected; NC: no coupling was detected. How it is done: Assay for combined FUS1-lacZ and FUS1-HIS3 Expression. In vivo assays of reporter gene induction (CPRG assays) were carried out by suspending cells to 0.02 OD600 in 200 μl SC-glucose (2%) lacking tryptophan, uracil and histidine. This medium was supplemented with agonists, and additionally 10 mM 3-aminotriazole and the β-galactosidase (lacZ) substrate chlorophenolred-β-D-galactopyranoside (CPRG; Boehringer) to a concentration of 0.1 mg/ml. To visualise the colour change reaction, the medium was buffered to pH 7 with 0.1 M sodium phosphate. The assay was conducted in a 96-well microtitre plate format. Plates were incubated for 24 hours without agitation, and absorbance at 570 nm was determined using a Victor microtitre plate reader (Wallac). EC50 values (+/−standard error) were estimated by curve-fitting, using the Robosage software package.
This experiment illustrates that, for certain receptors, the efficiency of coupling to the yeast pheromone response pathway can be enhanced by creating chimeras between yeast and mammalian Gα subunits. […] Agonist-dependent activation of FUS1-lacZ was determined by incubating cells in medium supplemented with the chromogenic, cell-permeant β-galacosidase (lacZ) substrate, chlorophenolred-β-D-galactopyranoside (CPRG; Boehringer Mannheim). […]

The target in assay [2] is T1, somatostatin SST2 receptor (Homo sapiens, UniProt P30874).
T1 construct: expressed in transfected cells; host or cells: Saccharomyces cerevisiae strains MMY9 and MMY11, plasmid pFL61-SST2, PGK1 promoter
As to the kind of experiment: Reverse halo assay for FUS1-HIS3 expression, MMY9 cells, SST2. Type of assay: cell-based. Conditions: MMY9 cells with pRS314-GPA1 and SST2 receptor, 3 nmol somatostatin-14. The method, then: (§1) Assay for FUS1-HIS3 Expression. Reverse halo assays were carried out by growing MMY9 cells to early stationary phase (OD600≈4) in liquid SC-glucose (2%) medium lacking tryptophan and uracil. A uniform layer of cells (5×10^7) was plated to 22.5 cm by 22.5 cm bioassay dishes (Nunc) in 100 ml SC-glucose agar (1%) equilibrated to 50° C. This medium lacked tryptophan, uracil and histidine, and was supplemented with 10 mM 3-aminotriazole, and buffered to pH 7.0 with 0.1M sodium phosphate. Antibiotic discs were placed on the solidified agar, and a volume of agonist solution (1-5 μl) was applied to each disc. Plates were incubated at 30° C. for 3 days.
(§2) The four receptors were: the melatonin ML1B receptor, the serotonin 5HT1A receptor, the somatostatin SST2 receptor and the purinergic nucleotide receptor, P2Y2. […] Activation of the pheromone response pathway was monitored with two integrated reporter genes: […] allowing a growth readout in medium lacking histidine, and FUS1-lacZ allowing a β-galactosidase readout. […] Agonist-dependent activation of FUS1-HIS3 was determined by reverse halo assay in which agonists were applied to the filter discs in the arrangement shown in panel A, in quantities as follows: 3 nmol of somatostatin-14 (S-14); 40 nmol of melatonin (Mel); 3 nmol of α-factor; 100 nmol of UTP; 40 nmol of serotonin (5-HT). […]

In assay [3] the target is T2, purinergic nucleotide receptor, P2Y2 (Homo sapiens, UniProt P41231).
T2 construct: expressed in transfected cells; host or cells: Saccharomyces cerevisiae strains MMY9 and MMY11, plasmid pDT-PGK-P2Y2
As to the kind of experiment: Reverse halo assay for FUS1-HIS3 expression, MMY9 cells, P2Y2. Type of assay: cell-based. The settings on record: MMY9 cells with pRS314-GPA1 and P2Y2 receptor, 100 nmol UTP. How it is done: as §1, §2

Sequence of purinergic nucleotide P2Y2 receptor (P41231 1-347 limits assumed): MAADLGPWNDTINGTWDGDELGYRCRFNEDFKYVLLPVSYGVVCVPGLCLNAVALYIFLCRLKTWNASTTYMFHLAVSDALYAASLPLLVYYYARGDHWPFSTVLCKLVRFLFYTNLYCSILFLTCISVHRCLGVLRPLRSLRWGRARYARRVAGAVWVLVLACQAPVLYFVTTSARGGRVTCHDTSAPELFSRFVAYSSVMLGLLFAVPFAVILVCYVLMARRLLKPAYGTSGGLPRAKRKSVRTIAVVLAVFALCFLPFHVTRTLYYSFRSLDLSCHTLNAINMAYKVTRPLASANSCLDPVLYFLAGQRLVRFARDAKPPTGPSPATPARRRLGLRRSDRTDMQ
T2 sequence (P41231 whole entry): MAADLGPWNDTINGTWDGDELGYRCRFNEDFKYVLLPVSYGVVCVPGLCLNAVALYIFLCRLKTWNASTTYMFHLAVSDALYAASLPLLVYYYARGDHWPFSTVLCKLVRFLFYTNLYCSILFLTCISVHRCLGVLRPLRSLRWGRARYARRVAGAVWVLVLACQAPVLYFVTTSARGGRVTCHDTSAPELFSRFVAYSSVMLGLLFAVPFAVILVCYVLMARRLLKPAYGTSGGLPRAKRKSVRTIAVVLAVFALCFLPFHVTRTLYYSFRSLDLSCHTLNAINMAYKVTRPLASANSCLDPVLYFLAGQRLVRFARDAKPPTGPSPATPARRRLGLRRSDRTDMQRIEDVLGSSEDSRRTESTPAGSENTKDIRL
T1 sequence (P30874 whole entry): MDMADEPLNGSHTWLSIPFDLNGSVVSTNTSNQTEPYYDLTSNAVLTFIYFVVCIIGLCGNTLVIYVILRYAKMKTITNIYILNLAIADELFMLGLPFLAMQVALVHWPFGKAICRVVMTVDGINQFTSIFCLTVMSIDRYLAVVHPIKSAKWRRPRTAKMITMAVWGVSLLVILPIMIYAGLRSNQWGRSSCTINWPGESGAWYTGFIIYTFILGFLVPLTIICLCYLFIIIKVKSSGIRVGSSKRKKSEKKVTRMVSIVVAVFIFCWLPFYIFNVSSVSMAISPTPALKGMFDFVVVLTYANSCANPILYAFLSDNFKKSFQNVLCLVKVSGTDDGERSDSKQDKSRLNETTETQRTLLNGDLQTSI

B1: Gpa1p: endogenous yeast Gα subunit, product of the GPA1 gene (protein, UniProt P08539 2-472, looked up)
Guanine nucleotide-binding …: GCTVSTQTIGDESDPFLQNKRANDVIEQSLQLEKQRDKNEIKLLLLGAGESGKSTVLKQLKLLHQGGFSHQERLQYAQVIWADAIQSMKILIIQARKLGIQLDCDDPINNKDLFACKRILLKAKALDYINASVAGGSDFLNDYVLKYSERYETRRRVQSTGRAKAAFDEDGNISNVKSDTDRDAETVTQNEDADRNNSSRINLQDICKDLNQEGDDQMFVRKTSREIQGQNRRNLIHEDIAKAIKQLWNNDKGIKQCFARSNEFQLEGSAAYYFDNIEKFASPNYVCTDEDILKGRIKTTGITETEFNIGSSKFKVLDAGGQRSERKKWIHCFEGITAVLFVLAMSEYDQMLFEDERVNRMHESIMLFDTLLNSKWFKDTPFILFLNKIDLFEEKVKSMPIRKYFPDYQGRVGDAEAGLKYFEKIFLSLNKTNKPIYVKRTCATDTQTMKFVLSAVTDLIIQQNLKKIGII
For B1, in assay [1], the “coupling class where no EC50 could be fitted” value is recorded as “weak”. Further, the results for the “agonist-dependent activation of FUS1-HIS3 (halo of cell growth)” value in assay [2] and in assay [3] were “responded to somatostatin” and “responded to the agonist UTP”, respectively.
